Each binder was assayed against canine IL-4RA (construct not given) (canine) (assay: SPR, combinatorial Fab-SASA clone).

Kd | koff | kon | Binder
0.366 nM | 9.48e-05 s⁻¹ | 259000 M⁻¹ s⁻¹ | AHF21191 (Fab, V domains shown, not shown: small tags and cut ends) VH: EVQLVESGGDLVKPGGSLRLSCVASGFTFRDYAMTWVRQAPGKGLQWVSLINGSGGKTYYADAVKGRFTISRDNAKNTLYLQMNSLRAEDTAVYYCAVDRLTKTIRPQYYGLWHWGQGTLVTVSS VL: DIVMTQTPLSLSVSPGETASISCRSSQSLTYSIGYNYLDWYLQKPGQSPQGLIYLGSKRASGVPDRFSGSGSGTDFTLRISRVEANDTGVYYCMQGLQSPLGFGQGTKLEIKR
0.992 nM | 0.000192 s⁻¹ | 193000 M⁻¹ s⁻¹ | AHF21195 (Fab, V domains shown, not shown: small tags and cut ends) VH: EVQLVESGGDLVKPGGSLRLSCVASGFTFRDYAMTWVRQAPGKGLQWVSLINGSGGKTYYADAVKGRFTISRDNAKNTLYLQMNSLRAEDTAVYYCAVDRKTKTIRPQYYGLWVWGQGTLVTVSS VL: DIVMTQTPLSLSVSPGETASISCRSSQSLLYSIGYNYLDWYLQKPGQSPQGLIYLGSKRASGVPDRFSGSGSGTDFTLRISRVEANDTGVYYCMQGLQSPLSFGQGTKLEIKR
0.44 nM | 0.000151 s⁻¹ | 344000 M⁻¹ s⁻¹ | AHF21201 (Fab, V domains shown, not shown: small tags and cut ends) VH: EVQLVESGGDLVKPGGSLRLSCVASGFTFRDYAMTWVRQAPGKGLQWVSLINGSGGKTYYADAVKGRFTISRDNAKNTLYLQMNSLRAEDTAVYYCAVDRLTKTIRPQYYGLWHWGQGTLVTVSS VL: DIVMTQTPLSLSVSPGETASISCRSSQSLLYSIGYNYLDWYLQKPGQSPQGLIYLGHKRASGVPDRFSGSGSGTDFTLRISRVEANDTGVYYCMQGLQSPLGFGQGTKLEIKR
0.627 nM | 0.000133 s⁻¹ | 212000 M⁻¹ s⁻¹ | AHF21194 (Fab, V domains shown, not shown: small tags and cut ends) VH: EVQLVESGGDLVKPGGSLRLSCVASGFTFRDYAMTWVRQAPGKGLQWVSLINGSGGKTYYADAVKGRFTISRDNAKNTLYLQMNSLRAEDTAVYYCAVDRLTKTIRPQYYGLWVWGQGTLVTVSS VL: DIVMTQTPLSLSVSPGETASISCRSSQSLLYSIGYNYLDWYLQKPGQSPQGLIYLGSKRASGVPDRFSGSGSGTDFTLRISRVEANDTGVYYCMQGLQSPLSFGQGTKLEIKR
0.875 nM | 0.000127 s⁻¹ | 146000 M⁻¹ s⁻¹ | AHF21200 (Fab, V domains shown, not shown: small tags and cut ends) VH: EVQLVESGGDLVKPGGSLRLSCVASGFTFRDYAMTWVRQAPGKGLQWVSLINGSGGKTYYADAVKGRFTISRDNAKNTLYLQMNSLRAEDTAVYYCAVDRKTKTIRPQYYGLWVWGQGTLVTVSS VL: DIVMTQTPLSLSVSPGETASISCRSSQSLTYSIGYNYLDWYLQKPGQSPQGLIYLGSKRASGVPDRFSGSGSGTDFTLRISRVEANDTGVYYCMQPLQSPLSFGQGTKLEIKR
0.395 nM | 8.18e-05 s⁻¹ | 207000 M⁻¹ s⁻¹ | AHF21199 (Fab, V domains shown, not shown: small tags and cut ends) VH: EVQLVESGGDLVKPGGSLRLSCVASGFTFRDYAMTWVRQAPGKGLQWVSLINGSGGKTYYADAVKGRFTISRDNAKNTLYLQMNSLRAEDTAVYYCAVDRLTKTIRPQYYGLWVWGQGTLVTVSS VL: DIVMTQTPLSLSVSPGETASISCRSSQSLTYSIGYNYLDWYLQKPGQSPQGLIYLGHKRASGVPDRFSGSGSGTDFTLRISRVEANDTGVYYCMQGLQSPLGFGQGTKLEIKR

— patent US20250188176A1
